Assay results: the nanobody polyreactivity screen of Harvey et al. (2022)

Assay: yeast display, Sf9 membrane polyspecificity reagent, FACS + sequencing; frameworks hold sequencing errors
Summary of the method: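 Genes from sorted yeast were amplified by colony PCR, read by MiSeq 2 × 250 sequencing and filtered on CDR length. These cells carried a synthetic nanobody library in Saccharomyces cerevisiae BJ5465 and were sorted by FACS into low and high (top ~1%) gates on anti-HA and streptavidin fluorescence. Polyreactivity is labelled according to the gate of origin.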

| Sequence | polyreactivity (PSR sort gate) |
| --- | --- |
| QVQLVESGGGLVQAGGSLRLSCAASGSIFYRYSMGWYRPAPGKESELVATITQSGVTTYYADSVKGRFTISRDNAKNTVYLELNSVKPEDTAVYYCAASYYYYLGPFFRKFDWGQGTQVTVSS | low polyreactivity |
| QVQLVESGGGLVQAGGSLRLSCAASGSIFYSNAMGWYRQAPGKEREFVATITQTGSSTYDADSVKGRFTISRDNAKNTVYLQMNSLKPEVTAVYYCAVDWILYEYEDDFWYRYDYWGQGTQVTVSS | low polyreactivity |
| QVQLVESGGGLVQAGGSLRLSCAASGSIFYSNAMGWYRQAPGKERELVAAISGSGGTTYYADSVKGRFTISRDNAKNTVYIQMNSLKPEDTAVYYCAAKPRVRVRLSDYWGQGTQVTVSS | high polyreactivity |
| QVQLVESGGGLVQAGGSLRLSCAASGSIFYSNTMGWYSQAPGKERELVAAISSSSGRTYYADSVKGRFTISRDNAKNTVYLQMNSLKPEDTAVYYCARRYGWGQGTQVTVSS | high polyreactivity |
| QVQLVESGGGLVQAGGSLRLSCAASGSIFYSNVMGWYRQAPGKERELVASITNGGGTYYADSVKGRFTISRDNAKNTVYLQMNSLKPEDTAVYYCAADPDRTAYDYWGQGTQVTVSS | low polyreactivity |
| QVQLVESGGGLVQAGGSLRLSCAASGSIFYSYAKGSYLQAPGKERELVADITFSGVSTYYADSVKGRFTISRDNAKNTVYLQMKSLKTEDTAVYYGAADGVSRWYLYRWYDYDYWGQGTQVTVSS | low polyreactivity |
| QVQLVESGGGLVQAGGSLRLSCAASGSIFYSYAMGWYIQAPGKERELVAVISSGGRTNYADSVKGRFTISRDNAKNTVYLQMNSLKPEDTAVYYCAARNYLYRYARAYDYWGQGTQVTVSS | high polyreactivity |
| QVQLVESGGGLVQAGGSLRLSCAASGSIFYSYAMGWYRQAPGKERELVADITITGSTYYADSVKGRFTISRDNAKNTVYLQMNSLKPDDTAVYYCNAVLAPGGYDYWGQGTQVTVSS | low polyreactivity |
| QVQLVESGGGLVQAGGSLRLSCAASGSIFYTNAMGWYRQAPGKERELVAAISCSGDSTYYADSVKGRFTISRDNAKNTVYLQMNSLKPEDTAVYYCNADRRSYNGFRYYYWGQGTQVTVSS | low polyreactivity |
| QVQLVESGGGLVQAGGSLRLSCAASGSIFYTNAMGWYRQAPGKERELVAAISISGSTYYADSVKGRFTISRDNAKNTVYLQMNSLKPEDTAVYYCAAGPGYVRYPRSGVWYVTLYDYWGQGTQVTVSS | high polyreactivity |
| QVQLVESGGGLVQAGGSLRLSCAASGSIFYTNAMGWYRQAPGKERELVAAYADSVKGRFTISRDNAKNTVYLQMNSLKPEDTAVYYCNAVLPIYRYLYEGDYWGQGTQVTVSS | low polyreactivity |
| QVQLVESGGGLVQAGGSLRLSCAASGSIFYTNAMGWYRQAPGKERELVASITGGGSTKYADSVKGRFTISRDNAKNTVYLQMNSLKPEDTAVYYCAKRRYWPLDWGQGTQVTVSS | high polyreactivity |
| QVQLVESGGGLVQAGGSLRLSCAASGSIFYTYAMGWYRQAPGKERELVAAISRSGGSTYYADSVKGRFTISRDNAKNTVYVQMNSLKPEETAVYYCAAVSYRGRGYWGQGTQVTVSS | high polyreactivity |
| QVQLVESGGGLVQAGGSLRLSCAASGSIFYTYTMGWYRQAPGKERELVAAISWSGGSTYYADSVKGRFTISRDNAKNTVYLQMISLKPEDTAVYYCAAYGTGYYGYDYWGQGTQVTVSS | low polyreactivity |
| QVQLVESGGGLVQAGGSLRLSCAASGSIFYVNAMGWYRQAPGKERELVAAISVRGGRTYYADSVKGRFTISRDNAKNTVYLQMNSLKPEDTAVYYCATRISTVGRYDYWGQGTQVTVSS | high polyreactivity |
| QVQLVESGGGLVQAGGSLRLSCAASGSIFYVNTMVWYRQAPGKERELVAGITSRGGSTYYADSVKGRFTISRDNAKNSVYLQMNSLKPEDTAVYYCAKRAYGTALYRGYGYWGQGTQVTVSS | low polyreactivity |
| QVQLVESGGGLVQAGGSLRLSCAASGSIFYVYAMGWYGQAPGKDRELVASISWGDSSTYYADSVKGRFTISRDTAKNTVYLQMNSLKPEDTAVYYCAADEYRQYALYDYWGQGTQVTVSS | low polyreactivity |
| QVQLVESGGGLVQAGGSLRLSCAASGSIFYVYAMGWYRQAPGKERELVAAITARVTSTYYADSVKGRFTISRDNAKNTVYLQMNSLKPEDTAVYSCAARTSYKTGYRKYDYWGQATQVTVSS | low polyreactivity |
| QVQLVESGGGLVQAGGSLRLSCAASGSIFYVYAMGWYRQAPGKERELVAAITNYADSVKGRFTISRDNAKNTVYLQMNSLKPEDTAVYYCAADWWRVEMDYWGQVTQVTVSS | low polyreactivity |
| QVQLVESGGGLVQAGGSLRLSCAASGSIFYVYAMGWYRQAPGKERELVASINKYGGSTYYADSVKGRFTISRDNAKNTVYLQMNSLKPADTAVYYCAARTGWPRVGFQYPAHVGFDYWGQGTQVTVSS | low polyreactivity |
| QVQLVESGGGLVQAGGSLRLSCAASGSIFYVYAMGWYRQSPGKERELVAAITSSGTTNYADSVKGRFTISRDNAKNTVYLLMNSLKPEDSAVYYCAADPDSGHVRFDYWGQGTQVTVSS | low polyreactivity |
